Data as given in patent US6562591.
Where a chain is given by its changes, count along the chain named.

B1: HA-Tnik(WT), full length human Tnik isoform 1 with N-terminal HA epitope tag (protein)
chain: AYPYDVPDYAMASDSPARSLDEIDLSALRDPAGIFELVELVGNGTYGQVYKGRHVKTGQLAAIKVMDVTGDEEEEIKQEINMLKKYSHHRNIATYYGAFIKKNPPGMDDQLWLVMEFCGAGSVTDLIKNTKGNTLKEEWIAYICREILRGLSHLHQHKVIHRDIKGQNVLLTENAEVKLVDFGVSAQLDRTVGRRNTFIGTPYWMAPEVIACDENPDATYDFKSDLWSLGITAIEMAEGAPPLCDMHPMRALFLIPRNPAPRLKSKKWSKKFQSFIESCLVKNHSQRPATEQLMKHPFIRDQPNERQVRIQLKDHIDRTKKKRGEKDETEYEYSGSEEEEEENDSGEPSSILNLPGESTLRRDFLRLQLANKERSEALRRQQLEQQQRENEEHKRQLLAERQKRIEEQKEQRRRLEEQQRREKELRKQQEREQRRHYEEQMRREEERRRAEHEQEYIRRQLEEEQRQLEILQQQLLHEQALLLEYKRKQLEEQRQAERLQRQLKQERDYLVSLQHQRQEQRPVEKKPLYHYKEGMSPSEKPAWAKEVEERSRLNRQSSPAMPHKVANRISDPNLPPRSESFSISGVQPARTPPMLRPVDPQIPHLVAVKSQGPALTASQSVHEQPTKGLSGFQEALNVTSHRVEMPRQNSDPTSENPPLPTRIEKFDRSSWLRQEEDIPPKVPQRTTSISPALARKNSPGNGSALGPRLGSQPIRASNPDLRRTEPILESPLQRTSSGSSSSSSTPSSQPSSQGGSQPGSQAGSSERTRVRANSKSEGSPVLPHEPAKVKPEESRDITRPSRPASYKKAIDEDLTALAKELRELRIEETNRPMKKVTDYSSSSEESESSEEEEEDGESETHDGTVAVSDIPRLIPTGAPGSNEQYNVGMVGTHGLETSHADSFSGSISREGTLMIRETSGEKKRSGHSDSNGFAGHINLPDLVQQSHSPAGTPTEGLGRVSTHSQEMDSGTEYGMGSSTKASFTPFVDPRVYQTSPTDEDEEDEESSAAALFTSELLRQEQAKLNEARKISVVNVNPTNIRPHSDTPEIRKYKKRFNSEILCAALWGVNLLVGTENGLMLLDRSGQGKVYNLINRRRFQQMDVLEGLNVLVTISGKKNKLRVYYLSWLRNRILHNDPEVEKKQGWITVGDLEGCIHYKVVKYERIKFLVIALKNAVEIYAWAPKPYHKFMAFKSFADLQHKPLLVDLTVEEGQRLKVIFGSHTGFHVIDVDSGNSYDIYIPSHIQGNITPHAIVILPKTDGMEMLVCYEDEGVYVNTYGRITKDVVLQWGEMPTSVAYIHSNQIMGWGEKAIEIRSVETGHLDGVFMHKRAQRLKFLCERNDKVFFASVRSGGSSQVFFMTLNRNSMMNW
B2: HA-Tnik(KM), kinase mutant form of Tnik with N-terminal HA epitope tag (protein)
chain: B1 chain with K64R

Target: Gelsolin (Sigma)

| Protein | phosphorylation of Gelsolin in an in vitro kinase assay |
| --- | --- |
| B1 | Wild type Tnik, but not the kinase mutant form of Tnik, phosphorylated Gelsolin in vitro |
| B2 | Wild type Tnik, but not the kinase mutant form of Tnik, phosphorylated Gelsolin in vitro |
